Assay results reported in patent US9943596B2, “Combination therapy using dual inhibitor of c-MET and EGFR and IGF-1R inhibitor” (Samsung Electronics Co., Ltd., priority 2014, dated 2018).

B1: ME22S: anti-c-Met/anti-EGFR bispecific antibody in which the modified anti-EGFR scFv is fused at the c-terminal of L3-1Y-IgG2 (antibody)
heavy: EVQLVESGGGLVQPGGSLRLSCAASGFTFTDYYMSWVRQAPGKGLEWLGFIRNKANGYTTEYSASVKGRFTISRDNSKNTLYLQMNSLRAEDTAVYYCARDNWFAYWGQGTLVTVSSASTKGPSVFPLAPCSRSTSESTAALGCLVKDYFPEPVTVSWNSGALTSGVHTFPAVLQSSGLYSLSSVVTVPSSNFGTQTYTCNVDHKPSNTKVDKTVERKCCVECPPCPAPPVAGPSVFLFPPKPKDTLMISRTPEVTCVVVDVSHEDPEVQFNWYVDGVEVHNAKTKPREEQFNSTFRVVSVLTVVHQDWLNGKEYKCKVSNKGLPAPIEKTISKTKGQPREPQVYTLPPSREEMTKNQVSLTCLVKGFYPSDIAVEWESNGQPENNYKTTPPMLDSDGSFFLYSKLTVDKSRWQQGNVFSCSVMHEALHNHYTQKSLSLSPGKGGGGSGGGGSEVQLLESGGGLVQPGGSLRLSCAASGFTFSNYDMSWVRQAPGKCLEWVSGISHSSGSKYYADSVKGRFTISRDNSKNTLYLQMNSLRAEDTAVYYCAKDATPRPLKPFDYWGQGTLVTVSSGGGGSGGGGSGGGGSQSVLTQPPSASGTPGQRVTISCTGSSSNIGNNDVSWYQQLPGTAPKLLIYDDNKRPSGVPDRFSGSKSGTSASLAISGLRSEDEADYYCGSWDASLNAYVFGCGTKLTVLG
light: DIQMTQSPSSLSASVGDRVTITCKSSQSLLASGNQNNYLAWYQQKPGKAPKMLIIWASTRVSGVPSRFSGSGSGTDFTLTISSLQPEDFATYYCQQSYSRPYTFGQGTKVEIKRTVAAPSVFIFPPSDEQLKSGTASVVCLLNNFYPREAKVQWKVDNALQSGNSQESVTEQDSKDSTYSLSSTLTLSKADYEKHKVYACEVTHQGLSSPVTKSFNRGEC
B2: scFv of huAbF46: scFv of structure VH-linker-VL from the heavy and light chain variable regions of huAbF46 (protein)
scFv: EVQLVESGGGLVQPGGSLRLSCAASGFTFTDYYMSWVRQAPGKGLEWLGFIRNKANGYTTEYSASVKGRFTISRDNSKNTLYLQMNSLRAEDTAVYYCARDNWFAYWGQGTLVTVSSGLGGLGGGGSGGGGSGGSSGVGSDIQMTQSPSSLSASVGDRVTITCKSSQSLLASGNQNNYLAWHQQKPGKAPKMLIIWASTRVSGVPSRFSGSGSGTDFTLTISSLQPEDFATYYCQQSYSAPLTFGQGTKVEIKR

Assays:
[1] = tested on: lung cancer cell line HCC827; assay: cell proliferation assay (CellTiter Glo), HCC827; assay type: cell-based; conditions: ME22S 1/5 dilutions from 150 nM and/or linsitinib 10 μM, 72 hours, FIGS. 3A, 3B
Description: (§1) 72 hours after the treatment with the antibody and/or the inhibitor drug, the number of living cells was counted using a CellTiter Glo assay (Promega, G7573). This assay measures the amount of ATP which reflects metabolism of living cells, thereby counting the number of living cells.
(§2) 72 hours after the co-treatment, the number of living cells was counted by CellTiter Glo assay (Promega, G7573).

[2] = tested on: gastric cancer cell line SNU5; assay: cell proliferation assay (CellTiter Glo), SNU5; assay type: cell-based; conditions: ME22S 1/5 dilutions from 60 nM, alone or with linsitinib 10 μM, 72 hours, FIG. 2
Description: as §1
(§3) 72 hours after the co-treatment, the cell number was measured by CellTiter Glo assay (Promega, G7573).

[3] = tested on: gastric cancer cell line SNU668; assay: cell proliferation assay (CellTiter Glo), SNU668; assay type: cell-based; conditions: ME22S 1/5 dilutions from 60 nM, alone or with linsitinib 10 μM, 72 hours, FIG. 2
Description: as §1, §3

[4] = tested on: gastric cancer cell line MKN45; assay: cell proliferation assay (CellTiter Glo), MKN45; assay type: cell-based; conditions: ME22S 1/5 dilutions from 10 nM and/or linsitinib 10 μM, 72 hours, FIGS. 4A, 4B
Description: as §1, §2

[5] = tested on: L3-1Y/IgG2 resistant MKN45re#1 and MKN45re#24 cell lines; assay: cell proliferation assay (CellTiter Glo), anti-c-Met antibody resistant MKN45; assay type: cell-based
Description: To obtain anti-c-Met antibody resistant MKN45 gastric cancer cells, MKN45 gastric cancer cells were administered with L3-1Y/IgG2 for at least 3 months by increasing the administration concentration. The amount of L3-1Y/IgG2 administered was increased from 1 μg/ml to 10 μg/ml, until resistance to L3-1Y/IgG2 is induced. The obtained L3-1Y/IgG2 resistant clones were named as MKN45re#1 and MKN45re#24, respectively.
72 hours after the co-treatment, the number of living cells was counted by CellTiter Glo assay (Promega, G7573). […] For comparison, the same experiment was preformed except that cells were treated with ME22S alone at the 1/5 diluted concentration starting from 10 nM.

c-Met = c-Met (Homo sapiens, UniProt P08581); assay: specificity of expressed scFv of huAbF46; assay type: binding; conditions: after expression
Chain of c-Met (P08581 25-1390): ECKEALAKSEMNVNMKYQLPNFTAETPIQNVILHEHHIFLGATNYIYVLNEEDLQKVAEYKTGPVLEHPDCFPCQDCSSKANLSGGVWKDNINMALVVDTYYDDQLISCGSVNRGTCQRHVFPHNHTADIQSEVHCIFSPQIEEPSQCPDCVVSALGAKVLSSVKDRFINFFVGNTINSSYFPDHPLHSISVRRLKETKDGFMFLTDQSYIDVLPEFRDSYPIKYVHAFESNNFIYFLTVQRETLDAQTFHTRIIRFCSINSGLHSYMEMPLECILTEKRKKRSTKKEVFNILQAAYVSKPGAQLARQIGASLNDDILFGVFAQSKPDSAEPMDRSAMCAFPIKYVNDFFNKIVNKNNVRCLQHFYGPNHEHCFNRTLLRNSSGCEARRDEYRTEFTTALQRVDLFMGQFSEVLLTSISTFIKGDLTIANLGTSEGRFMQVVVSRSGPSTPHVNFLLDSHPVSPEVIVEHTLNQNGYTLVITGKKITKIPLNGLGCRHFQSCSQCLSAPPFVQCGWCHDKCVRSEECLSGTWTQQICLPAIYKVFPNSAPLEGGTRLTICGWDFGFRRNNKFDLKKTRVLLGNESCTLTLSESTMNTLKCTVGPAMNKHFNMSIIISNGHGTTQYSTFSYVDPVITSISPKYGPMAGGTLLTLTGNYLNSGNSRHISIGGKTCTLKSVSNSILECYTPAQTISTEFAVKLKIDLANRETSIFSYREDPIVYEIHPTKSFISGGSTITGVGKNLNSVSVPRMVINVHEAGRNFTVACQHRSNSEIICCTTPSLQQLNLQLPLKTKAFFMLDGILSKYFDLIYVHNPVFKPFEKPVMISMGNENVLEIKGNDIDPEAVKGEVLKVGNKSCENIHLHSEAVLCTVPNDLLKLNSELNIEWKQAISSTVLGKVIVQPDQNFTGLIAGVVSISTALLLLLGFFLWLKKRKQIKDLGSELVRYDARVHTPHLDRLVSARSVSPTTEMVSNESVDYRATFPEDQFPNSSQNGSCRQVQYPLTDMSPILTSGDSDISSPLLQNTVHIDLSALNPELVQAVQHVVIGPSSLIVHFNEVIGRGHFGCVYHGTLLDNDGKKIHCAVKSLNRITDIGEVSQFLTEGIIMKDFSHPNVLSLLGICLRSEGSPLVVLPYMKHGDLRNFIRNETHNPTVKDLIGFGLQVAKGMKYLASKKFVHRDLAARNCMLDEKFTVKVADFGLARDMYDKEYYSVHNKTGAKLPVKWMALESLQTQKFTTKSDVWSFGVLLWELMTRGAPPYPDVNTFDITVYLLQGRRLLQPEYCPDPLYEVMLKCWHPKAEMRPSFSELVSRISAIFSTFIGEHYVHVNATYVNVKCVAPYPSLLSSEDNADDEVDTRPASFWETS
Excerpt: For use in constructing an scFv of the huAbF46 antibody from the heavy and light chain variable regions of the huAbF46 antibody, a gene was designed to have the structure of “VH-linker-VL” for each of the heavy and the light chain variable region, with the linker including the amino acid sequence “[…]” (SEQ ID NO: 54). A polynucleotide sequence (SEQ ID NO: 55) encoding the designed scFv of huAbF46 was synthesized in Bioneer and an expression vector for the polynucleotide had the nucleotide sequence of SEQ ID NO: 56.

specificity to c-Met (c-Met)	Molecule	cancer cell proliferation inhibition effect [1]	cell proliferation inhibition effect [2]	cell proliferation inhibition effect [3]	cancer cell proliferation inhibition [4]	cancer cell proliferation inhibition effect ([5]; MKN45re#1 (linsitinib 10 μM) or MKN45re#24 (linsitinib 2.5 μM), ME22S 1/5 dilutions from 10 nM, 72 hours, FIG. 5)	resistance of the cell line to the antibody ([5]; anti-c-Met antibody (L3-1Y/IgG2) resistant MKN45 gastric cancer cell line)
–	B1	not observed	has a cell proliferation inhibition effect	does not exhibit a cell proliferation inhibition effect	can inhibit proliferation	no cancer cell proliferation inhibition effect	resistant
exhibit specificity to c-Met	B2	–	–	–	–	–	–
